Test results from patent US20250376667A1.

B1: matrix metalloproteinase 7 (MMP7) (enzyme, UniProt P09237 95-267, looked up, species assumed)
Matrilysin: YSLFPNSPKWTSKVVTYRIVSYTRDLPHITVDRLVSKALNMWGKEIPLHFRKVVWGTADIMIGFARGAHGDSYPFDGPGNTLAHAFAPGTGLGGDAHFDEDERWTDGSSLGINFLYAATHELGHSLGMGHSSDPNAVMYPTYGNGDPQNFKLSQDDIKGIQKLYGKRSNSRKK

How the values were obtained:
[1] = test system: control peptide comprising PCL1 (PCL1 Pep)
[2] = test system: KL958 (C521S C370S)-PCL1-HSA

control peptide comprising PCL1 (PCL1 Pep), sequence (chain, as listed by the source): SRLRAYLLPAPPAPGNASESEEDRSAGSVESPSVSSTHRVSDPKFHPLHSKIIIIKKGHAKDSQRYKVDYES

Molecule | protease cleavage of the peptide in vitro [1] | protease cleavage in reaction buffer, immunoblot with anti-KL antibodies [2] | protease cleavage in reaction buffer, immunoblot with anti-KL antibodies (KL958 (C521S)-PCL1-HSA)
kallikrein 2 (KLK2) | The ability of two proteases, kallikrein 2 (KLK2) and matrix metalloproteinase 7 (MMP7), to cleave the protease cleavable linker PCL1 was confirmed using a control peptide comprising PCL1 (PCL1 Pep) |  | 
B1 | The ability of two proteases, kallikrein 2 (KLK2) and matrix metalloproteinase 7 (MMP7), to cleave the protease cleavable linker PCL1 was confirmed using a control peptide comprising PCL1 (PCL1 Pep) | PCL1-containing KL polypeptides displayed cleavage of the linker, resulting in a shorter KL polypeptide in the presence of MMP7 | PCL1-containing KL polypeptides displayed cleavage of the linker, resulting in a shorter KL polypeptide in the presence of MMP7
